Measured values as given in patent publication US20080249043.

Experiments:
[1] = target: His-tagged PLS3(T21A) (UniProt Q9NRY6)
[2] = target: His-tagged PLS3 (wild-type phospholipid scramblase 3) (UniProt Q9NRY6)
[3] = target: first 50-aa fragment of PLS3, His-tagged (UniProt Q9NRY6)

His-tagged PLS3(T21A), sequence (Q9NRY6 other isoform, or with tags, fused parts or gaps T21A): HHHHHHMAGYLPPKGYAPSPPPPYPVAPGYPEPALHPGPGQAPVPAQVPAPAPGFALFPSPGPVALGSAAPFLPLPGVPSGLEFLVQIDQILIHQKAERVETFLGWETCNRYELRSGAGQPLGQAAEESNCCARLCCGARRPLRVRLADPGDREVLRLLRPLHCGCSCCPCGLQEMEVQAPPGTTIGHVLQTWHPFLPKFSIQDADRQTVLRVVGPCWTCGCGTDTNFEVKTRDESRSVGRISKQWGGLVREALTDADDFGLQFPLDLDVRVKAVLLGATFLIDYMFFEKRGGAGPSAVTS

Question: For “Recombinant human PKC-δ enzyme (Calbiochem)”, which “in vitro phosphorylation with [γ-32P]ATP, autoradiography” value (from here on “in vitro phosphorylation”) [1] is on record?
Answer: Its value is “mutation at Thr21 nearly eliminated PLS3 phosphorylation by PKC-δ”.

Question: And the “in vitro phosphorylation” value [2]?
Answer: Its value is “Phosphorylation was seen in both full-length PLS3 and its N-terminal fragment of PLS3”.

Question: And the “in vitro phosphorylation” value [3]?
Answer: The value was “Phosphorylation was seen in both full-length PLS3 and its N-terminal fragment of PLS3”.
